Laboratory results as given in publication PMC6135047.

Molecular target: His-ToxR (Vibrio parahaemolyticus RIMD 2210633?) (UniProt Q05938)
Assay: DNase I footprinting

Chain of UniProt Q05938 (Q05938 1-176): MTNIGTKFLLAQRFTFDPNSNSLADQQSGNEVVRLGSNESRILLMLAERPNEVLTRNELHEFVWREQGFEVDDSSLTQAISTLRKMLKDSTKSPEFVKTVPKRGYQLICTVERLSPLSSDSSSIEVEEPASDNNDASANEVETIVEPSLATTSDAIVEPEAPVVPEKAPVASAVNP

Sequence | binding
TTTCAGGGACGACTTTGTGATTTAGCCCCATGAAATCACCACACTAAGATGTCATTTAACATGTGGCTGACAAATGTAAATTCAAGGTCAATATTGCTAAAAACGGTGTTTTTTTAGAAAAATTTAATTATCCTACCCCCCTAAAAGCATCTAAAACGTCGCGTATCTCCCATGCGCAAACGTAATTTTGTGATATAAATCACCATAATTACAACATCATCCATCTAAGAAGAACTAA (double strand) [toxR footprint probe] | binds
CAGATTGCTGAATATCGGTGATGTATGAGAAATCGTTCAATGTAAAAAATATGCGCAATGATTGATGCTGGGAGAATAGAAAGGATGAGGTGGTATTTATAGTGAATATTGGTCGGGAGTTTTTAGAAAACTGAAAACGCCCTAAAAAAACACGTCTGATTTTGACAGCCTGATAAAAACGCACTTCATATAATTCGCTTGTATTGTACGAAAGGAGTGCAAGTGAATGAGTATTATCAAT (double strand) [VP1667 (vopN) footprint probe] | binds
CAGAGTGACCCAGAGCCGTTTTGATGCTGTTATTTTTCATCATTCGGCGCGATTAATATGCTAAAGATGGTCGGATTTTTTTCGTTTTAAGACGTTTGAAAACAACAAAGCTCAGCAATGTGCTGAGCTTTGTGTTCGATTGATTTGGCGGTGATGCCCTACTCTGGTG (double strand) [VP1687 footprint probe] | binds
